Several values for one entry are separate records, joined by “and”; a condition that tells them apart may be missing. Identical values can stand only once.
B1: Bispecific construct 16 (bispecific antibody, human IgG1, kappa)
heavy 1: not shown
heavy 2: EVQLVESGGGLVQPGGSLRLSCAASGFTFNTYAMNWVRQAPGKGLEWVARIRSKYNNYATYYADSVKGRFTISRDDSKNTLYLQMNSLRAEDTAVYYCVRHGNFGNSYVSYFAYWGQGTTVTVSSGGGGSGGGGSGGGGSGGGGSEIVVTQSPATLSVSPGERATLSCRSSTGAVTAANYANWVQEKPGQAFRGLIGGANKRAPGVPARFSGSLSGDEATLTISSLQSEDFAVYYCALFYSNLWVFGQGTKLEIKEPKSSDKTHTCPPCPAPEAAGAPSVFLFPPKPKDTLMISRTPEVTCVVVDVSHEDPEVKFNWYVDGVEVHNAKTKPREEQYNSTYRVVSVLTVLHQDWLNGKEYKCKVSNKALPAPIEKTISKAKGQPREPQVYTLPPSRDELTKNQVSLSCAVKGFYPSDIAVEWESNGQPENNYKTTPPVLDSDGSFFLVSKLTVDKSRWQQGNVFSCSVMHEALHNHYTQKSLSLSPGK
light: DIVMTQTPLSLPVTPGEPASISCRASKSISKYLAWYQQKPGQAPRLLIYSGSTLQSGIPPRFSGSGYGTDFTLTINNIESEDAAYYFCQQHDESPYTFGEGTKVEIKRTVAAPSVFIFPPSDEQLKSGTASVVCLLNNFYPREAKVQWKVDNALQSGNSQESVTEQDSKDSTYSLSSTLTLSKADYEKHKVYACEVTHQGLSSPVTKSFNRGEC
notes: anti-CD3 scFv Ab10; valency 1/1
B2: Bispecific construct 19 (bispecific antibody, human IgG1, kappa)
heavy 1: not shown
heavy 2: EVQLVESGGGLVQPGGSLRLSCAASGFTFNTYAMNWVRQAPGKGLEWVARIRSKYNNYATYYADSVKGRFTISRDDSKNTLYLQMNSLRAEDTAVYYCVRHGNFGNSYVSYFAYWGQGTTVTVSSGGGGSGGGGSGGGGSGGGGSEIVVTQSPATLSVSPGERATLSCRSSTGAVTAANYANWVQEKPGQAFRGLIGGANKRAPGVPARFSGSLSGDEATLTISSLQSEDFAVYYCALFYSNLWVFGQGTKLEIKGGGGSGGGGSQVQLQESGPGLVKPSQTLSLTCTVSGYAFTAYNIHWVRQAPGQGLEWMGSFDPYDGGSSYNQKFKDRLTISKDTSKNQVVLTMTNMDPVDTATYYCARGWYYFDYWGHGTLVTVSSASTKGPSVFPLAPSSKSTSGGTAALGCLVKDYFPEPVTVSWNSGALTSGVHTFPAVLQSSGLYSLSSVVTVPSSSLGTQTYICNVNHKPSNTKVDKKVEPKSCDKTHTCPPCPAPEAAGAPSVFLFPPKPKDTLMISRTPEVTCVVVDVSHEDPEVKFNWYVDGVEVHNAKTKPREEQYNSTYRVVSVLTVLHQDWLNGKEYKCKVSNKALPAPIEKTISKAKGQPREPQVYTLPPSRDELTKNQVSLSCAVKGFYPSDIAVEWESNGQPENNYKTTPPVLDSDGSFFLVSKLTVDKSRWQQGNVFSCSVMHEALHNHYTQKSLSLSPGK
light: DIVMTQTPLSLPVTPGEPASISCRASKSISKYLAWYQQKPGQAPRLLIYSGSTLQSGIPPRFSGSGYGTDFTLTINNIESEDAAYYFCQQHDESPYTFGEGTKVEIKRTVAAPSVFIFPPSDEQLKSGTASVVCLLNNFYPREAKVQWKVDNALQSGNSQESVTEQDSKDSTYSLSSTLTLSKADYEKHKVYACEVTHQGLSSPVTKSFNRGEC
notes: CD3 valency 1, ROR1 valency 2
B3: Bispecific construct 17 (bispecific antibody, human IgG1, kappa)
heavy 1: not shown
heavy 2: EVQLVESGGGLVQPGGSLRLSCAASGFTFNTYAMNWVRQAPGKCLEWVARIRSKYNNYATYYADSVKGRFTISRDDSKNTLYLQMNSLRAEDTAVYYCVRHGNFGNSYVSYFAYWGQGTTVTVSSGGGGSGGGGSGGGGSGGGGSEIVVTQSPATLSVSPGERATLSCRSSTGAVTAANYANWVQEKPGQAFRGLIGGANKRAPGVPARFSGSLSGDEATLTISSLQSEDFAVYYCALFYSNLWVFGCGTKLEIKEPKSSDKTHTCPPCPAPEAAGAPSVFLFPPKPKDTLMISRTPEVTCVVVDVSHEDPEVKFNWYVDGVEVHNAKTKPREEQYNSTYRVVSVLTVLHQDWLNGKEYKCKVSNKALPAPIEKTISKAKGQPREPQVYTLPPSRDELTKNQVSLSCAVKGFYPSDIAVEWESNGQPENNYKTTPPVLDSDGSFFLVSKLTVDKSRWQQGNVFSCSVMHEALHNHYTQKSLSLSPGK
light: DIVMTQTPLSLPVTPGEPASISCRASKSISKYLAWYQQKPGQAPRLLIYSGSTLQSGIPPRFSGSGYGTDFTLTINNIESEDAAYYFCQQHDESPYTFGEGTKVEIKRTVAAPSVFIFPPSDEQLKSGTASVVCLLNNFYPREAKVQWKVDNALQSGNSQESVTEQDSKDSTYSLSSTLTLSKADYEKHKVYACEVTHQGLSSPVTKSFNRGEC
notes: disulfide-stabilized anti-CD3 scFv Ab10; valency 1/1
B4: control 1 (bispecific antibody)
polypeptide, role not told 1: QLVLTQSPSASASLGSSVKLTCTLSSGHKTDTIDWYQQQPGKAPRYLMKLEGSGSYNKGSGVPDRFSGSSSGADWYLTISSLQSEDEADYYCGTDYPGNYLFGGGTQLTVLGGGGSGGGGEVQLVESGGGLVQPGGSLRLSCAASGFTFSTYAMNWVRQAPGKGLEWVGRIRSKYNNYATYYADSVKGRFTISRDDSKNSLYLQMNSLKTEDTAVYYCVRHGNFGNSYVSWFAYWGQGTLVTVSSASTKGEVAACEKEVAALEKEVAALEKEVAALEKGGGDKTHTCPPCPAPEAAGGPSVFLFPPKPKDTLMISRTPEVTCVVVDVSHEDPEVKFNWYVDGVEVHNAKTKPREEQYNSTYRVVSVLTVLHQDWLNGKEYKCKVSNKALPAPIEKTISKAKGQPREPQVYTLPPSREEMTKNQVSLWCLVKGFYPSDIAVEWESNGQPENNYKTTPPVLDSDGSFFLYSKLTVDKSRWQQGNVFSCSVMHEALHNHYTQKSLSLSPGK
polypeptide, role not told 2: QAVVTQEPSLTVSPGGTVTLTCRSSTGAVTTSNYANWVQQKPGQAPRGLIGGTNKRAPWTPARFSGSLLGGKAALTITGAQAEDEADYYCALWYSNLWVFGGGTKLTVLGGGGSGGGGQEQLVESGGGLVQPGGSLRLSCAASGFTFSDYYMSWIRQAPGKGLEWVATIYPSSGKTYYADSAKGRLTISSDNAKDSLYLQMNSLRAEDTAVYYCTRDSYADDAALFDIWGQGTTVTVSSASTKGKVAACKEKVAALKEKVAALKEKVAALKE
polypeptide, role not told 3: not shown
B5: Bispecific construct 18 (bispecific antibody, human IgG1, kappa)
heavy: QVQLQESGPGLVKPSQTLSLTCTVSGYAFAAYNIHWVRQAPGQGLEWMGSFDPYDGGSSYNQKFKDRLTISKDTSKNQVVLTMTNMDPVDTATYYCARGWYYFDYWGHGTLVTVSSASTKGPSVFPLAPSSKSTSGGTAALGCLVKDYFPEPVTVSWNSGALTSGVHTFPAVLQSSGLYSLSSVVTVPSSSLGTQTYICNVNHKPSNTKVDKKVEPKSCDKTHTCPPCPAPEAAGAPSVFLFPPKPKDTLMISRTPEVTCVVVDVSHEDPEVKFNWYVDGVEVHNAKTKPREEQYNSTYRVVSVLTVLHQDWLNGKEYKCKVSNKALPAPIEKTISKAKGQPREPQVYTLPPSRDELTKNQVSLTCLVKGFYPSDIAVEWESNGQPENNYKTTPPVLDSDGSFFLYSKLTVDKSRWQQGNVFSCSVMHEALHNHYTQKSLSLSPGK
light: DIVMTQTPLSLPVTPGEPASISCRASKSISKYLAWYQQKPGQAPRLLIYSGSTLQSGIPPRFSGSGYGTDFTLTINNIESEDAAYYFCQQHDESPYTFGEGTKVEIKRTVAAPSVFIFPPSDEQLKSGTASVVCLLNNFYPREAKVQWKVDNALQSGNSQESVTEQDSKDSTYSLSSTLTLSKADYEKHKVYACEVTHQGLSSPVTKSFNRGECGGGGSGGGGSEVQLVESGGGLVQPGGSLRLSCAASGFTFNTYAMNWVRQAPGKGLEWVARIRSKYNNYATYYADSVKGRFTISRDDSKNTLYLQMNSLRAEDTAVYYCVRHGNFGNSYVSYFAYWGQGTTVTVSSGGGGSGGGGSGGGGSGGGGSEIVVTQSPATLSVSPGERATLSCRSSTGAVTAANYANWVQEKPGQAFRGLIGGANKRAPGVPARFSGSLSGDEATLTISSLQSEDFAVYYCALFYSNLWVFGQGTKLEIK
notes: anti-CD3 scFv Ab10; valency 2/2
B6: Bispecific construct 20 (bispecific antibody, human IgG1, kappa)
heavy: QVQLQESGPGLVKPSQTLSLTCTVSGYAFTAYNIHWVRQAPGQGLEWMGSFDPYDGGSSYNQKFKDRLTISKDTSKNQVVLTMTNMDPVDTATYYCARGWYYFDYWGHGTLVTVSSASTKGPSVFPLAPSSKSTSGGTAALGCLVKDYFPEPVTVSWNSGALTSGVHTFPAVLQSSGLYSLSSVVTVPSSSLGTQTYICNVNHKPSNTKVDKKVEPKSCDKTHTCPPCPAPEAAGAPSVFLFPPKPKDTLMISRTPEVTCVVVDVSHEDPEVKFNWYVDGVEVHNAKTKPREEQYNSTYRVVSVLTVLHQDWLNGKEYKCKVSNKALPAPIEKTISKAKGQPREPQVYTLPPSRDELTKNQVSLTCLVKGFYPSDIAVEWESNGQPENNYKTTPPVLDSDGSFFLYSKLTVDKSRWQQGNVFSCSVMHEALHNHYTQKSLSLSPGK
light: EVQLVESGGGLVQPGGSLRLSCAASGFTFNTYAMNWVRQAPGKGLEWVARIRSKYNNYATYYADSVKGRFTISRDDSKNTLYLQMNSLRAEDTAVYYCVRHGNFGNSYVSYFAYWGQGTTVTVSSGGGGSGGGGSGGGGSGGGGSEIVVTQSPATLSVSPGERATLSCRSSTGAVTAANYANWVQEKPGQAFRGLIGGANKRAPGVPARFSGSLSGDEATLTISSLQSEDFAVYYCALFYSNLWVFGQGTKLEIKGGGGSGGGGSDIVMTQTPLSLPVTPGEPASISCRASKSISKYLAWYQQKPGQAPRLLIYSGSTLQSGIPPRFSGSGYGTDFTLTINNIESEDAAYYFCQQHDESPYTFGEGTKVEIKRTVAAPSVFIFPPSDEQLKSGTASVVCLLNNFYPREAKVQWKVDNALQSGNSQESVTEQDSKDSTYSLSSTLTLSKADYEKHKVYACEVTHQGLSSPVTKSFNRGEC
notes: valency 2/2

Experiments:
[1] = molecular target: T1, soluble biotinylated human ROR1 extracellular domain (human, UniProt Q01973 30-406, biotinylated with EZ-Link Sulfo-NHS-LC-Biotin at a 1:5 molar ratio); assay: ELISA, captured construct, biotinylated ROR1 titrated
T1 construct: Acro Biosystems cat; whole entry named; also called b-ROR1; soluble b-ROR1
Description: To measure the binding of bispecific constructs to soluble ROR1, a 96-well Costar-3366 plate was coated with 50 μL/well of 2 μg/mL goat anti-human kappa (Southern Biotech cat. #2060-01) in PBS overnight at 4° C. The plate was rinsed once with PBS-T, blocked with 100 μL/well 5% M-P for 1 h at 25° C., rinsed once with PBS-T, and 2 μg/mL of the bispecific binding molecule was added and incubated for 1 h at 25° C. The plate was washed three times with PBS-T. Biotinylated ROR1 was diluted serially, 3-fold in 5% M-P and was incubated for 1 h at 25° C. (50 μL/well). The plate was washed three times with PBS-T. To detect the binding of b-ROR1, 50 μL/well Neutravidin-HRP (Pierce cat. #31030) diluted 1:5000 in 1% BSA-PBS was added for 1 h at 25° C. The plate was washed three times with PBS-T, then developed with 50 μL/well 1-Step Ultra TMB-ELISA (Thermo Scientific cat. #34028). The reaction was terminated by the addition of 2 N H₂SO₄ and the A450 was determined using a Spectramax plate reader.
The stronger binding observed with bivalent constructs versus monovalent constructs in cell assays and ELISAs in which the antigen is immobilized is consistent with an avidity effect. To determine if this was the case, binding to soluble monomeric ROR1 was assessed by immobilizing the bispecific binding molecules on a microtiter plate coated with goat anti-human kappa antibody and titrating biotinylated RORL. All bispecific binding molecules were active in this format (FIG. 7), and in most cases, there were no notable differences between monovalent and bivalent constructs.

[2] = molecular target: T2, human CD3 on Jurkat cells (human, UniProt P09693 23-182; P04234 22-171; P07766 23-207); assay: flow cytometry on Jurkat cells
T2 construct: GenBank NP_000064.1, NP_000723.1, NP_000724.1
Description: To quantitate CD3 binding, 2.5E5 Jurkat cells were used for each condition. A 2× stock of the cells was made by resuspending the cells to 5E6/mL by placing in 50 μL of PBS with 2% FBS. Next, the cells were diluted with an equal volume of 2× stock of the test bispecific binding molecule. The cells and antibody were co-incubated on ice for 20 min. The cells were then washed 3 times with 300 μL of FACS buffer and were resuspended in 100 μL of goat anti-human Fc-PE conjugate antibody (Invitrogen cat. #12499882) at 1:500 dilution and incubated on ice with reduced light for 20 min. The cells were then washed 3 times with 300 μL of FACS buffer and fixed with 2% paraformaldehyde for 10 min at 25° C. The cells were washed 2 times with 300 μL of FACS buffer and analyzed on a Miltenyi MACSQuant Analyzer.

human ROR1 on cells = human ROR1 on cells (human, UniProt Q01973 30-937); assay: cell-based or functional assay
human ROR1 on cells, sequence (Q01973 30-937 limits assumed): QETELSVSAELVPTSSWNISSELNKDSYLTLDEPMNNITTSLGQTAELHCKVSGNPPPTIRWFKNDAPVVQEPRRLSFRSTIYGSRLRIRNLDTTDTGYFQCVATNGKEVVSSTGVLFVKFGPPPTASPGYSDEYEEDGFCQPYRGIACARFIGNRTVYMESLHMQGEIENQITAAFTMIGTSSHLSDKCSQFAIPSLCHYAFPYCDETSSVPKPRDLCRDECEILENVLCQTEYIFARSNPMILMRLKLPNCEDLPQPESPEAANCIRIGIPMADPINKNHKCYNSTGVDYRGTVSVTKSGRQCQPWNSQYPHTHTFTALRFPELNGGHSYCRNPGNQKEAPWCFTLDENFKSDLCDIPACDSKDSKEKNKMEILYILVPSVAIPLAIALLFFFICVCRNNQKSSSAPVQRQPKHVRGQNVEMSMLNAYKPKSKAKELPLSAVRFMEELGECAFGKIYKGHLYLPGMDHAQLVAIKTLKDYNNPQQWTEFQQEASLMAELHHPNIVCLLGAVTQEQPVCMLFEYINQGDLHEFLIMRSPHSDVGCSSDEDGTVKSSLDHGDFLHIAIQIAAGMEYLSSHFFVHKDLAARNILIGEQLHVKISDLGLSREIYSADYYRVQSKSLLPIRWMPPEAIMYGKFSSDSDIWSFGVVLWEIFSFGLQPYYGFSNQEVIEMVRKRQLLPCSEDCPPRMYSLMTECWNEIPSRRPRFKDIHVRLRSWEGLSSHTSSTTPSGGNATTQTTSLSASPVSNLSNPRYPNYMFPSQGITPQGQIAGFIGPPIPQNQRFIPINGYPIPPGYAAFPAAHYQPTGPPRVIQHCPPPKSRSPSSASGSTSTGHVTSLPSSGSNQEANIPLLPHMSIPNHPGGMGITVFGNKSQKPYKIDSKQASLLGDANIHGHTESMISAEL

T2 sequence (P09693 23-182 limits assumed, chain 1 of 3): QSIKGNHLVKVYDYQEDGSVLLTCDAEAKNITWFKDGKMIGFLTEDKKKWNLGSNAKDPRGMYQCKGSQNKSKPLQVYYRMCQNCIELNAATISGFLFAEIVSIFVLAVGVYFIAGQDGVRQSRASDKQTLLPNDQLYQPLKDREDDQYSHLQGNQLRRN
T2 sequence (P04234 22-171 limits assumed, chain 2 of 3): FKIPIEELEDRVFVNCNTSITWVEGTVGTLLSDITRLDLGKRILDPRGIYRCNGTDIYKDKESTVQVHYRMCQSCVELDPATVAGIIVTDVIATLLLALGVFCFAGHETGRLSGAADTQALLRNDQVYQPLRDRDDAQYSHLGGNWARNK
T2 sequence (P07766 23-207 limits assumed, chain 3 of 3): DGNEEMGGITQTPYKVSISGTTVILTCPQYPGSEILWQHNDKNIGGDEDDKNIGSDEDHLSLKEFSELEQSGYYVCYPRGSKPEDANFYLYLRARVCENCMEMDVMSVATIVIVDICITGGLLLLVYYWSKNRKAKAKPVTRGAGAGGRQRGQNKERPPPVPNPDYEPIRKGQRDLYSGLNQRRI
T1 sequence (Q01973 30-406 limits assumed): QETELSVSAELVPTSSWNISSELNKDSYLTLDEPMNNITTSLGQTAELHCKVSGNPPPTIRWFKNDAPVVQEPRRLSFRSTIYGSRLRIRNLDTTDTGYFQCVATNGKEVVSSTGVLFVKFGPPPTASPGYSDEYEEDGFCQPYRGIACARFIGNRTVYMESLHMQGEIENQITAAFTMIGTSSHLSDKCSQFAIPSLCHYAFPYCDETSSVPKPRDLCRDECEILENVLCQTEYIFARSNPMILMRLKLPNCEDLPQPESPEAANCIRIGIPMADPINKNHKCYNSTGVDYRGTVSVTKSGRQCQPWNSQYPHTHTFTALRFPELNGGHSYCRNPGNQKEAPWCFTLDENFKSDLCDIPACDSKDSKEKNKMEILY

| Binder | Kd [1] [nM] | binding result [2] | EC50, LDH release, ROR1-transfected MEC (human ROR1 on cells) | Max. LDH Release, ROR1-transfected MEC (human ROR1 on cells) [%] |
| --- | --- | --- | --- | --- |
| B1 | 0.057 | binds | – | – |
| B2 | 0.2 | – | – | – |
| B3 | 0.068 | binds | – | – |
| B4 | – | binds | – | – |
| B5 | 0.048 | binds | 3.5 ng/mL and 17 pM | 34 |
| B6 | 0.366 | – | 1.8 ng/mL and 9 pM | 37 |

Source: patent US20220227866A1 (VELOSBIO, published 2022)
